Molecular target: cardiac troponin I (cTnI) (UniProt P19429 P19429:2-210)
Experiment: cTnI-dependent opening of aptamer on magnetic particles, supernatant fluorescence of tagged HTG-H1 falls with cTnI; 0.5 ng/mL not distinguishable from blank; native PAGE HCR products also cTnI-dependent (p77, FIG. 6B); SERRS LOD 0.5 pg/mL in serum (p85), colorimetric hyperbranched HCR LOD 0.117 ng/mL (p104); high-salt buffer 20 mM Tris pH 7.6, 1000 mM NaCl, 5 mM KCl, 2 mM MgCl2, 1 mM CaCl2
Details: tags: Genscript (SERRS studies); label: biotin (on streptavidin magnetic particles)

Sequence of cardiac troponin I (cTnI) (P19429 2-210, one chain of several): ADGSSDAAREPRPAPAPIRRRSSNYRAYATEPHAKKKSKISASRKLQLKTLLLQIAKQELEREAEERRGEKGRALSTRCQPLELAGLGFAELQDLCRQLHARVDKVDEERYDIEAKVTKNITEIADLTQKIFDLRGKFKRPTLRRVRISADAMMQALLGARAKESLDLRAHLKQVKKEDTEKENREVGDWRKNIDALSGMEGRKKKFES

B1: locked Tro4 aptamer-initiator (Tro4 + A8 spacer + HCR initiator + blocker) (ssDNA)
DNA: TTTTTCGTGCAGTACGCAACCTTTCTCATGCGCTGCCCCTCTTAAAAAAAAGCAGATCCTAAGCCGCACCCAATTAAGGGGCAGCGCATGAGAAAGGTTCCGTA
B1: binds.

— patent US20250034621, “LOCKED APTAMER HAIRPIN INTEGRATED HYBRIDIZATION CHAIN REACTION FOR RAPID, INSTRUMENT-FREE BIOMARKER DETECTION” (The Texas A&m University System, published 2025)
